Data on 19 molecules can be found in patent publication US20230416352A1.

B1: Hu147-11wk (antibody, human IgG1, kappa, V domains shown)
VH: EVQLVESGGGLVQPGGSLRLSCAASGFTFSTYAMNWVRQAPGKGLEWVGRIRTKSNNYATYYADSVKDRFTISRDDSKNSLYLQMNSLKTEDTAVYYCVETGFAYWDQGTLVTVSS
VL: EIVLTQSPATLSLSPGERATLSCSASSSVSYMHWFQQKPGQSPRLLIYSTSNLASGIPARFSGSGSGTDYTLTISSLEPEDFAVYYCQQRSSYPLTFGQGTKLEIKR
B2: Hu147-23wk (antibody, human IgG1, kappa, V domains shown)
VH: EVQLVESGGGLVQPGGSLRLSCAASGFTFNTYAMNWVRQAPGKGLEWVARIRTKSNNYATYYADSVKDRFTISRDDSKNSLYLQMNSLKTEDTAVYYCVETGFAYWDQGTLVTVSS
VL: EIVLTQSPATLSLSPGERATLSCSASSSVSYMHWFQQKPGQSPKLWIYSTSNLASGVPARFSGSGSGTDYTLTISSLEPEDFAVYYCQQRSSYPLTFGQGTKLEIKR
B3: Hu147-31wk (antibody, human IgG1, kappa, V domains shown)
VH: EVQLVESGGGLVQPGGSLRLSCAASGFSFNTYAMNWVRQAPGKGLEWVARIRTKSNNYATYYADSVKDRFTISRDDSESSLYLQMNSLKTEDTAVYYCVETGFAYWDQGTLVTVSS
VL: EIVLTQSPATLSLSPGERATLSCSASSSVSYMHWFQQKPGQSPRLLIYSTSNLASGIPARFSGSGSGTDYTLTISSLEPEDFAVYYCQQRSSYPLTFGQGTKLEIKR
B4: Hu147-33wk (antibody, human IgG1, kappa, V domains shown)
VH: EVQLVESGGGLVQPGGSLRLSCAASGFSFNTYAMNWVRQAPGKGLEWVARIRTKSNNYATYYADSVKDRFTISRDDSESSLYLQMNSLKTEDTAVYYCVETGFAYWDQGTLVTVSS
VL: EIVLTQSPATLSLSPGERATLSCSASSSVSYMHWFQQKPGQSPKLWIYSTSNLASGVPARFSGSGSGTDYTLTISSLEPEDFAVYYCQQRSSYPLTFGQGTKLEIKR
B5: Hu147-14wk (antibody, human IgG1, kappa, V domains shown)
VH: EVQLVESGGGLVQPGGSLRLSCAASGFTFSTYAMNWVRQAPGKGLEWVGRIRTKSNNYATYYADSVKDRFTISRDDSKNSLYLQMNSLKTEDTAVYYCVETGFAYWDQGTLVTVSS
VL: DIQMTQSPSSLSASVGDRVTITCSASSSVSYMHWFQQKPGKSPKLLIYSTSNLASGVPSRFSGSGSGTDYTLTISSLQPEDFATYYCQQRSSYPLTFGQGTKLEIKR
B6: Hu147-15wk (antibody, human IgG1, kappa, V domains shown)
VH: EVQLVESGGGLVQPGGSLRLSCAASGFTFSTYAMNWVRQAPGKGLEWVGRIRTKSNNYATYYADSVKDRFTISRDDSKNSLYLQMNSLKTEDTAVYYCVETGFAYWDQGTLVTVSS
VL: DIQLTQSPSSLSASVGDRVTITCSASSSVSYMHWFQQKPGKSPKLWIYSTSNLASGVPSRFSGSGSGTDYTLTISSLQPEDFATYYCQQRSSYPLTFGQGTKLEIKR
B7: Hu147-34wk (antibody, human IgG1, kappa, V domains shown)
VH: EVQLVESGGGLVQPGGSLRLSCAASGFSFNTYAMNWVRQAPGKGLEWVARIRTKSNNYATYYADSVKDRFTISRDDSESSLYLQMNSLKTEDTAVYYCVETGFAYWDQGTLVTVSS
VL: DIQMTQSPSSLSASVGDRVTITCSASSSVSYMHWFQQKPGKSPKLLIYSTSNLASGVPSRFSGSGSGTDYTLTISSLQPEDFATYYCQQRSSYPLTFGQGTKLEIKR
B8: Hu147-22wk (antibody, human IgG1, kappa, V domains shown)
VH: EVQLVESGGGLVQPGGSLRLSCAASGFTFNTYAMNWVRQAPGKGLEWVARIRTKSNNYATYYADSVKDRFTISRDDSKNSLYLQMNSLKTEDTAVYYCVETGFAYWDQGTLVTVSS
VL: EIVLTQSPATLSLSPGERATLSCSASSSVSYMHWFQQKPGQSPKLLIYSTSNLASGIPARFSGSGSGTDYTLTISSLEPEDFAVYYCQQRSSYPLTFGQGTKLEIKR
B9: Hu147-13wk (antibody, human IgG1, kappa, V domains shown)
VH: EVQLVESGGGLVQPGGSLRLSCAASGFTFSTYAMNWVRQAPGKGLEWVGRIRTKSNNYATYYADSVKDRFTISRDDSKNSLYLQMNSLKTEDTAVYYCVETGFAYWDQGTLVTVSS
VL: EIVLTQSPATLSLSPGERATLSCSASSSVSYMHWFQQKPGQSPKLWIYSTSNLASGVPARFSGSGSGTDYTLTISSLEPEDFAVYYCQQRSSYPLTFGQGTKLEIKR
B10: Hu147-32wk (antibody, human IgG1, kappa, V domains shown)
VH: EVQLVESGGGLVQPGGSLRLSCAASGFSFNTYAMNWVRQAPGKGLEWVARIRTKSNNYATYYADSVKDRFTISRDDSESSLYLQMNSLKTEDTAVYYCVETGFAYWDQGTLVTVSS
VL: EIVLTQSPATLSLSPGERATLSCSASSSVSYMHWFQQKPGQSPKLLIYSTSNLASGIPARFSGSGSGTDYTLTISSLEPEDFAVYYCQQRSSYPLTFGQGTKLEIKR
B11: Hu147-24wk (antibody, human IgG1, kappa, V domains shown)
VH: EVQLVESGGGLVQPGGSLRLSCAASGFTFNTYAMNWVRQAPGKGLEWVARIRTKSNNYATYYADSVKDRFTISRDDSKNSLYLQMNSLKTEDTAVYYCVETGFAYWDQGTLVTVSS
VL: DIQMTQSPSSLSASVGDRVTITCSASSSVSYMHWFQQKPGKSPKLLIYSTSNLASGVPSRFSGSGSGTDYTLTISSLQPEDFATYYCQQRSSYPLTFGQGTKLEIKR
B12: Hu147-21wk (antibody, human IgG1, kappa, V domains shown)
VH: EVQLVESGGGLVQPGGSLRLSCAASGFTFNTYAMNWVRQAPGKGLEWVARIRTKSNNYATYYADSVKDRFTISRDDSKNSLYLQMNSLKTEDTAVYYCVETGFAYWDQGTLVTVSS
VL: EIVLTQSPATLSLSPGERATLSCSASSSVSYMHWFQQKPGQSPRLLIYSTSNLASGIPARFSGSGSGTDYTLTISSLEPEDFAVYYCQQRSSYPLTFGQGTKLEIKR
B13: Hu147-12wk (antibody, human IgG1, kappa, V domains shown)
VH: EVQLVESGGGLVQPGGSLRLSCAASGFTFSTYAMNWVRQAPGKGLEWVGRIRTKSNNYATYYADSVKDRFTISRDDSKNSLYLQMNSLKTEDTAVYYCVETGFAYWDQGTLVTVSS
VL: EIVLTQSPATLSLSPGERATLSCSASSSVSYMHWFQQKPGQSPKLLIYSTSNLASGIPARFSGSGSGTDYTLTISSLEPEDFAVYYCQQRSSYPLTFGQGTKLEIKR
B14: Hu164-57wl (antibody, human IgG1, lambda, V domains shown)
VH: EVTLKESGPVLVKPTETLTLTCTVSGFSLSTFGVHWIRQPPGKALEWLAVIWRRGGTDYNAAFMSRLTISKDTSKSQVVLTMTNMDPVDTATYYCARDGGFDYWGQGTTVTVSS
VL: ETVVTQEPSLTVSPGGTVTLTCRSSIGAVTTSNYANWVQQKPGQAFRGLIGGTSNRAPWTPARFSGSLLGGKAALTLSGVQPEDEAEYYCALWYSTHYVFGGGTKLTVLG
B15: Hu164-68wl (antibody, human IgG1, lambda, V domains shown)
VH: EVTLKESGPVLVKPTETLTLTCTVSGFSLSTFGVHWIRQPPGKGLEWLGVIWRRGGTDYNAAFMSRLTISKDTSKSQVVFTMTNMDPVDTATYYCARDGGFDYWGQGTTVTVSS
VL: ETVVTQEPSFSVSPGGTVTLTCRSSIGAVTTSNYANWVQQTPGQAFRGLIGGTSNRAPGVPDRFSGSILGNKAALTITGAQADDESDYYCALWYSTHYVFGGGTKLTVLG
B16: Hu164-69wl (antibody, human IgG1, lambda, V domains shown)
VH: EVTLKESGPVLVKPTETLTLTCTVSGFSLSTFGVHWIRQPPGKGLEWLGVIWRRGGTDYNAAFMSRLTISKDTSKSQVVFTMTNMDPVDTATYYCARDGGFDYWGQGTTVTVSS
VL: ESVVTQPPSVSGAPGQRVTISCRSSIGAVTTSNYANWVQQLPGTAFKGLIGGTSNRAPGVPDRFSGSKSGTSASLAITGLQAEDEADYYCALWYSTHYVFGGGTKLTVLG
B17: Hu164-77wl (antibody, human IgG1, lambda, V domains shown)
VH: EVQLQESGPGLVKPSQTLSLTCTVSGFSISTFGVHWIRQHPGKGLEWIGVIWRRGGTDYNAAFMSRVTISKDTSKNQVSLKLSSVTAADTAVYYCARDGGFDYWGQGTTVTVSS
VL: ETVVTQEPSLTVSPGGTVTLTCRSSIGAVTTSNYANWVQQKPGQAFRGLIGGTSNRAPWTPARFSGSLLGGKAALTLSGVQPEDEAEYYCALWYSTHYVFGGGTKLTVLG
B18: Hu164-87wl (antibody, human IgG1, lambda, V domains shown)
VH: EVQLQESGPGLVKPSQTLSLTCTVSGFSISTFGVHWIRQHPGKGLEWLGVIWRRGGTDYNAAFMSRLTISKDTSKNQVSFKLSSVTAADTAVYYCARDGGFDYWGQGTTVTVSS
VL: ETVVTQEPSLTVSPGGTVTLTCRSSIGAVTTSNYANWVQQKPGQAFRGLIGGTSNRAPWTPARFSGSLLGGKAALTLSGVQPEDEAEYYCALWYSTHYVFGGGTKLTVLG
B19: Hu95-51yk (antibody, human IgG1, kappa, V domains shown)
VH: EVQLVQSGAEVKKPGASVKVSCRASGFTFTNYAIHWVKQAPGQRLEWMGLVYPYTGGTAYNQKFKDKVTLTFDTSASTAYMELSSLRSEDTAVYYCARWGMIPGTNSYFDVWGQGTTVTVSS
VL: EIVLTQSPATLSLSPGERATLSCRASSSVSYIHWYQQKPGQAPRPWIYATSNLASGIPARFSGSGSGTDYTLTISRLEPEDFAVYYCQQWNSNPWTFGGGTKVEIKR

The target of the test is Cynomolgus monkey CTGF-Fc (cynomolgus monkey). The test can be described thus: ELISA, cyno-CTGF-mFc captured by anti-mFc.
Sequence of Cynomolgus monkey CTGF-Fc (cynomolgus monkey) (P29279 other isoform, or with tags, fused parts or gaps limits assumed): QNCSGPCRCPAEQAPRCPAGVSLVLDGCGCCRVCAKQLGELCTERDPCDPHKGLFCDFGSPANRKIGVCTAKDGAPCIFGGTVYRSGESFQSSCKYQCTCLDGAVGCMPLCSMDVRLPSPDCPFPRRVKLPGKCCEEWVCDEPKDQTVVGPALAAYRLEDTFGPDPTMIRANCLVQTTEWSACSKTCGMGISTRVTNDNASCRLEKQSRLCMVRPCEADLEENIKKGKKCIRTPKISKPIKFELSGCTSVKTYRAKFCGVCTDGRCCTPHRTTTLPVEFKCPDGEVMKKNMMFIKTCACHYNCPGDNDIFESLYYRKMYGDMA
In the case of B1, the EC50 came to 0.052 nM.
For the molecule B2, the EC50 is 0.063 nM.
The molecule B3 returned an EC50 of 0.07 nM.
With B4 the figure was 0.044 nM; with B5, 0.077 nM.
B6 displayed an EC50 of 0.053 nM.
As to B7, the EC50 worked out at 0.144 nM.
B8: the EC50 came out at 0.073 nM.
With B9 the figure was 0.043 nM; with B10, 0.079 nM.
The molecule B11 came in with an EC50 of 0.08 nM.
Regarding B12, the EC50 turned out to be 0.053 nM.
Next, B13: 0.062 nM; B14: 0.029 nM.
Regarding B15, the EC50 was 0.036 nM.
Next, B16: 0.032 nM.
With B17, the EC50 amounted to 0.038 nM.
As to B18, the EC50 was 0.034 nM.
Molecule B19 showed an EC50 of 0.059 nM.
